Stoichiometry N data for three substances are collected here from publication PMC2873410.

What all share (assay): cross-linking; lysate (hypotonic buffer) of Sf9 cells expressing the V5-tagged protein, 0.01% glutaraldehyde at room temperature for various times; Western blot with anti-V5 antibody
The target of test [1] is WSSV structural protein VP19, full length, V5- or FLAG-tagged (white spot syndrome virus (WSSV-TW strain)).
Test [2] deals with WSSV structural protein VP24, full length, V5- or FLAG-tagged (white spot syndrome virus (WSSV-TW strain)).
For test [3], the target named is WSSV structural protein VP51A, full length, V5- or FLAG-tagged (white spot syndrome virus (WSSV-TW strain)).

“WSSV structural protein VP19, full length, V5- or FLAG-tagged (natural protein)” yielded a stoichiometry N in test [1] of 2.
Take “WSSV structural protein VP24, full length, V5- or FLAG-tagged (natural protein)”: the stoichiometry N in test [2] is 2.
With “WSSV structural protein VP51A, full length, V5- or FLAG-tagged (natural protein)”, the stoichiometry N in test [3] was 2.

The term stoichiometry N denotes a count of units in the complex or per binding partner.
